Measurements published in patent US5683985, “Oligonucleotide decoys and methods relating thereto” (The Salk Institute for Biological Studies).

Legend:
[1] = target: JUN (UniProt P05412); details: PS at 6 linkages within the Sp1 recognition octamer; K2PtCl4 crosslinking, SDS gel
[2] = target: T1, CREB (CRE-BP) (UniProt P15337 P15337:1-327); test: EMSA; 50 mM KCl, 15 mM Tris pH 7.5, room temperature; details: chain copies: 2, label: 5'-32P
Protocol: (§1) Binding of the ligated CRE and CRE(s)_6 sequences to the CREB protein was carried out as previously described [Dwarki et al., EMBO J. 9:225–232 (1990); chu and Orgel, Nucleic Acids Res. 19:6958 (1991)]. Approximately 0.015 pmole of the [^32P]-CRE sequences was added to ~200 ng of pure CREB protein in 10 µl of buffer containing 50 mM KCl, 15 mM Tris, (pH 7.5), 0.1 mM EDTA, 0.5 mM DTT, 180 ng acetylated BSA and 250 ng (poly[dI-dC].poly[dI-dC]) and then incubated at room temperature for 15–20 minutes. Binding was detected by gel shift assay on 6% non-denaturing gels using 40 mM Tris-borate at pH 8.2 as the electrophoresis buffer. Binding of the ligated CRE sequences to an aliquot of nuclear extract from PC12 cells (4 μg total protein) was carried out in the same way. Binding of TRE sequences to the JUN protein was carried out similarly in 10 μl of buffer containing 50 mM Tris (pH 7.9), 100 mM KCl, 1 mM EDTA, 1 mM DTT, 12.5 mM MgCl_2, 20% glycerol and 250 ng (poly[dI-dC]·poly[dI-dC]). Binding was detected by non-denaturing gel electrophoresis on 6% acrylamide, using 20 mM Tris-borate (pH 8.2) as electrophoresis buffer.

[3] = target: T1, CREB (CRE-BP); test: EMSA; does not bind CREB; crosslinking <10% of CRE at 2 mM K2PtCl4, none at 0.3 mM; details: chain copies: 2; label: 32P; closed circular dumbbell
Protocol: (§2) Binding of the ligated CRE and CRE(s)_6 sequences to the CREB protein was carried out as previously described [Dwarki et al., EMBO J. 9:225–232 (1990); chu and Orgel, Nucleic Acids Res. 19:6958 (1991)]. Approximately 0.015 pmole of the [^32P]-CRE sequences was added to ~200 ng of pure CREB protein in 10 µl of buffer containing 50 mM KCl, 15 mM Tris, (pH 7.5), 0.1 mM EDTA, 0.5 mM DTT, 180 ng acetylated BSA and 250 ng (poly[dI-dC].poly[dI-dC]) and then incubated at room temperature for 15–20 minutes. Binding was detected by gel shift assay on 6% non-denaturing gels using 40 mM Tris-borate at pH 8.2 as the electrophoresis buffer. Binding of the ligated CRE sequences to an aliquot of nuclear extract from PC12 cells (4 μg total protein) was carried out in the same way. Binding of TRE sequences to the JUN protein was carried out similarly in 10 μl of buffer containing 50 mM Tris (pH 7.9), 100 mM KCl, 1 mM EDTA, 1 mM DTT, 12.5 mM MgCl_2, 20% glycerol and 250 ng (poly[dI-dC]·poly[dI-dC]). Binding was detected by non-denaturing gel electrophoresis on 6% acrylamide, using 20 mM Tris-borate (pH 8.2) as electrophoresis buffer. […]

[4] = target: T1, CREB (CRE-BP); test: EMSA; bound more efficiently than the other oligomers; 50 mM KCl, pH 7.5; details: chain copies: 2; label: 32P; closed circular dumbbell
Protocol: as §1

[5] = target: T1, CREB (CRE-BP); test: EMSA; PS does not diminish binding; K2PtCl4 crosslinking 40-50% of binding at 2.3 mM; details: chain copies: 2; label: 32P; closed circular dumbbell
Protocol: as §2

[6] = target: T1, CREB (CRE-BP); test: EMSA; crosslinks with K2PtCl4 at ~40% of ligCRE(s)6 efficiency; details: chain copies: 2; label: 32P; closed circular dumbbell
Protocol: For crosslinking of oligonucleotide to protein, approximately 0.015 pmole of the appropriate [^32P]-labelled dumbbell oligonucleotide was first incubated with 200 ng CREB or JUN protein in 10 μl of buffer containing 50 mM KCl, 15 mM Tris (pH 7.5), 0.1 mM EDTA, […], 180 ng acetylated BSA and 250 ng (poly[dI-dC]·poly[dI-dC]) as described above. After 15 minutes at room temperature, 1–3 μl of a freshly prepared solution containing the required amount of K_2PtCl_4 or transPt^II in buffer containing 1 mM phosphate (pH 7) and 0.1 mM EDTA was added to the reaction mixture. Incubation was continued at room temperature in the dark for 1 hour. 0.5 μl of a 5% solution of SDS was then added and the crosslinked product separated from non-crosslinked oligonucleotide on an 8% polyacrylamide gel using buffer containing 90 mM Tris-borate (pH 8.2) and 0.1% SDS (SDS gels disrupt noncovalently associated DNA-protein complexes).

T1 sequence (P15337 whole entry, one chain of several): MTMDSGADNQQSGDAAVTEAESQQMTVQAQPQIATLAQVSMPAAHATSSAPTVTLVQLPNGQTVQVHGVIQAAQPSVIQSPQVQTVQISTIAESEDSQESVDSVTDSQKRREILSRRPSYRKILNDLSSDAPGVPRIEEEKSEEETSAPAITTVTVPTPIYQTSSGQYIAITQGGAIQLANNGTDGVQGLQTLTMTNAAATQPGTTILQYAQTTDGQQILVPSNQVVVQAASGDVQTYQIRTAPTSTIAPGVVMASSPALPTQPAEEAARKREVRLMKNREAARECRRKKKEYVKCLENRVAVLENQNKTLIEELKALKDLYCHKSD
Sequence of JUN (P05412 whole entry): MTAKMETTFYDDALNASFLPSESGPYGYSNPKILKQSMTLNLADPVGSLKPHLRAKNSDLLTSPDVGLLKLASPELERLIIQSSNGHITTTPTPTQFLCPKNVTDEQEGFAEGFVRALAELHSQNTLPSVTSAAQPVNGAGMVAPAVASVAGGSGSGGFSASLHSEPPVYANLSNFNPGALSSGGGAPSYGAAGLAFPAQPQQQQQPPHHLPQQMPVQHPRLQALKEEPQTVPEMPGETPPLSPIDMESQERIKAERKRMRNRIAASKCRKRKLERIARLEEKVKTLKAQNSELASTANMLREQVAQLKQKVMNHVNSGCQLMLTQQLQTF

CCTCTCGCTCGCCCCGCCCCGATCCTCTCGATCGGGGCGGGGCGAG [ligSp1(s)6 dumbbell]
binding signal (% of ligTRE(s)6 crosslinking) [1]: < 10

B1: CRE 18-mer duplex (dsDNA)
DNA 1: AAATTGACGTCATGGTAA
DNA 2: TTACCATGACGTCAATTT
binding result [2]: binds

B2: CRE 41-mer hairpin (structured_DNA)
DNA: AAATTGACGTCATGGTAACTCTCTTACCATGACGTCAATTT
binding result ([2]; hairpin with CTCTC loop): binds

B3: ligSp1(s)6 dumbbell (structured_DNA)
DNA: CCTCTCGCTCGCCCCGCCCCGATCCTCTCGATCGGGGCGGGGCGAG
modifications: PS at 6 linkages within the Sp1 recognition octamer
binding result [3]: no binding

B4: CRE 46-mer nicked dumbbell (structured_DNA)
DNA: GTAACTCTCTTACCATGACGTCAATTTCTCTCAAATTGACGTCATG
binding result ([2]; nicked dumbbell): binds

B5: ligCRE dumbbell (structured_DNA)
DNA: B4 DNA
binding result [4]: binds

B6: ligCRE(s)6 dumbbell (structured_DNA)
DNA: B4 DNA
modifications: PS at 6 linkages within the octamer (T(s)GAC(s)GTC(s)A on both strands)
binding result [5]: binds

B7: ligTRE(s)6 dumbbell (structured_DNA)
DNA: ACTCTCTGTGTCTGACTCATGCTCTCTCAGCATGAGTCAGACAC
modifications: PS at 6 linkages within the recognition sequence
binding signal [6]: ~0.1 fold of ligCRE(s)6
